{"source": "paper PMC4630568", "about": "“Arabidopsis LEAFY COTYLEDON1 controls cell fate determination during post-embryonic development” (Frontiers in Plant Science, 2015)", "target": "T1, His-LEC1 (LEAFY COTYLEDON1) (Arabidopsis, UniProt Q9SFD8 1-238)", "T1 construct": "LEAFY COTYLEDON1 (LEC1), NF-Y transcription factor, Arabidopsis, AT1G21970; Vector pQE30; source: E. coli Rosetta DE3, purified (Ni-nitrilotriacetic acid agarose beads)", "T1 sequence (looked up)": "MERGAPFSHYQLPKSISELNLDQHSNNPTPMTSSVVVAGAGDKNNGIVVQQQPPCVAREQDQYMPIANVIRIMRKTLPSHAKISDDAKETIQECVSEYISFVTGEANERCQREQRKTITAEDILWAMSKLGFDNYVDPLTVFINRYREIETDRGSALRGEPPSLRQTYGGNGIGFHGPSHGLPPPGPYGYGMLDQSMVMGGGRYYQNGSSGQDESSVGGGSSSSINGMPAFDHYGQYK", "assay": "pull-down; 2 μg of His-LEC1 or His-GFP incubated with immobilized GST or GST fusion proteins; 50 mM Tris-HCl pH 8.0, 100 mM NaCl, 1 mM EDTA; 4°C, 4 h; detected with an anti-His antibody", "conditions": "both partners purified"}
{"binder": "GST-TCL2 (TRICHOMELESS2) (natural protein, Arabidopsis, UniProt B3H4X8 1-100, looked up, TCL2, single-repeat R3 MYB protein, Arabidopsis, AT2G30424; Vector pGEX-4T-1; source: E. coli Rosetta DE3, purified (glutathione sepharose beads)) MDNTNRLRHLRSRKQSKFTLGDTAEVNSVKWEFINMTEQEEDLIFRMHRLVGDRWDLIAGRVVGREAKDIERYWIMRNCDHCSHKRRRVHKFYRFSISPP", "values": [{"measurement": "binding result", "result": "binds"}]}
